For data set [1], the target named is T1, IKK2 (HA epitope-tagged, expressed from pHA-IKK2), O14920.
T1 chain: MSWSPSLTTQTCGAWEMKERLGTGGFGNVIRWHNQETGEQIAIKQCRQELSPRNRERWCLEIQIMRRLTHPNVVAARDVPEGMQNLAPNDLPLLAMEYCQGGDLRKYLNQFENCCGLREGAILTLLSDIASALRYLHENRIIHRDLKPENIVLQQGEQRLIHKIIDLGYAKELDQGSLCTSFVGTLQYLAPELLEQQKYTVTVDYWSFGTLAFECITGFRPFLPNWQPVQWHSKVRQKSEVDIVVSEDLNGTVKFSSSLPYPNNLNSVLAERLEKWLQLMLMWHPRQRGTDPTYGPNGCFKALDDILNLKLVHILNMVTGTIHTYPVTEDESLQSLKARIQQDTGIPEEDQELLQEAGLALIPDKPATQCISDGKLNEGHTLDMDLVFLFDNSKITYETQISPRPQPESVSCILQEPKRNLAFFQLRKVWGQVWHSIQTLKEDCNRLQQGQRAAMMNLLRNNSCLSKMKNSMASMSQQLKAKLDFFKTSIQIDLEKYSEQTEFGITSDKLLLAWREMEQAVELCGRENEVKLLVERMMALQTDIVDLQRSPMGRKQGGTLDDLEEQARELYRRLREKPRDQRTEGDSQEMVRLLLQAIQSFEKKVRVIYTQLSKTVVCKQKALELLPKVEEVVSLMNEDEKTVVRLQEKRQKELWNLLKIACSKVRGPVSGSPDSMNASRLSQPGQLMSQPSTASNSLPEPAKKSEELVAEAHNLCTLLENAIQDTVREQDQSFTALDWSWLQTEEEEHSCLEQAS

In data set [2] the target is T2, Receptor Interacting Protein RIP (UniProt Q13546 1-671, limits assumed).
T2 sequence (looked up): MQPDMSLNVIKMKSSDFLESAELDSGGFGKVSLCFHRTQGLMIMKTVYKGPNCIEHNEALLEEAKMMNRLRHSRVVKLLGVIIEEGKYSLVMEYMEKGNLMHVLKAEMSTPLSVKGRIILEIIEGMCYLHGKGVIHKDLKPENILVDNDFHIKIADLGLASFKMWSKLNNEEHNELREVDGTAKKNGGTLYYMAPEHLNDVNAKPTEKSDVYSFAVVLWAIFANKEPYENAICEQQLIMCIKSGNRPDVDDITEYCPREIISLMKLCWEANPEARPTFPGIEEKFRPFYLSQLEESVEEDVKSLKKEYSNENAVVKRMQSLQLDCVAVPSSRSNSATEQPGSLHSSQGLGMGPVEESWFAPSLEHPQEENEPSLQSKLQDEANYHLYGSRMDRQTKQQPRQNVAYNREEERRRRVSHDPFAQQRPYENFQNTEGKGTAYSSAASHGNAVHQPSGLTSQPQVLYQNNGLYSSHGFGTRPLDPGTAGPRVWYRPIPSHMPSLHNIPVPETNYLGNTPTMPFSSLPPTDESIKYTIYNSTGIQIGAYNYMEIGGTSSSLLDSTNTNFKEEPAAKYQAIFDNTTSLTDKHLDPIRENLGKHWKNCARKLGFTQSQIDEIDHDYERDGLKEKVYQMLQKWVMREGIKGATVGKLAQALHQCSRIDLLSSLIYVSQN
Kind of data set: not described (data not shown).

In data set [3] the target is T3, TNF Receptor Associated Factor 2 TRAF2 (UniProt Q12933 1-501, limits assumed).
T3 sequence (looked up): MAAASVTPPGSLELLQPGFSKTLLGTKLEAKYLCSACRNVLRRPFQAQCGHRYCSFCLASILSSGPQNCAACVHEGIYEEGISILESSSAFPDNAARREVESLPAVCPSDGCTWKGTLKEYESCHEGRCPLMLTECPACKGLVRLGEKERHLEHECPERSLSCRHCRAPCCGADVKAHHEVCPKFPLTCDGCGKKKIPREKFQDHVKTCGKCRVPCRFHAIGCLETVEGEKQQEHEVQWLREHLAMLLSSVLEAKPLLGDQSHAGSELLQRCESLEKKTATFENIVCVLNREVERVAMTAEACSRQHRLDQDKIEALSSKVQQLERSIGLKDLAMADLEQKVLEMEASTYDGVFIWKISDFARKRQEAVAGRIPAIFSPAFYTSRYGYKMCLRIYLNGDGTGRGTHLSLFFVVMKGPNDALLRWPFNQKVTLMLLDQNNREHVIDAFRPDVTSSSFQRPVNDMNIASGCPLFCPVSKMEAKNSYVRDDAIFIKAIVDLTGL
The data set is described as follows: not described (data not shown).

The target of data set [4] is T4, IKK-γ subunit (endogenous, 293T cells) (human, UniProt Q9Y6K9 1-419).
T4 construct: also called endogenous IKK-γ
T4 sequence (Q9Y6K9 whole entry): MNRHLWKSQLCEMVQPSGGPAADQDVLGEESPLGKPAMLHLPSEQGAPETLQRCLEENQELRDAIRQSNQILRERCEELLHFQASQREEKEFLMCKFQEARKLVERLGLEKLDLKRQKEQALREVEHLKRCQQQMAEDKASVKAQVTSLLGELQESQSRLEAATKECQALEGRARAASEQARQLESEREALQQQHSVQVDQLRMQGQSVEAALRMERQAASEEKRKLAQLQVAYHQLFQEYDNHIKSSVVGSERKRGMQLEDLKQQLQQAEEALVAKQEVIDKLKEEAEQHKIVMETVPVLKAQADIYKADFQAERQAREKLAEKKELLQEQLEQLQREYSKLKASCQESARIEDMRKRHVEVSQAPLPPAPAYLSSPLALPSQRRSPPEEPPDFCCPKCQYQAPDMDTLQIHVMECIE
The data set is described as follows: co-immunoprecipitation with anti-IKK-γ from 293T lysates, immunoblot (FIG. 7C).

B1: IKK1 (FLAG epitope-tagged, expressed from pFLAG-IKK1) (protein)
chain: MERPPGLRPGAGGPWEMRERLGTGGFGNVCLYQHRELDLKIAIKSCRLELSTKNRERWCHEIQIMKKLNHANVVKACDVPEELNILIHDVPLLAMEYCSGGDLRKLLNKPENCCGLKESQILSLLSDIGSGIRYLHENKIIHRDLKPENIVLQDVGGKIIHKIIDLGYAKDVDQGSLCTSFVGTLQYLAPELFENKPYTATVDYWSFGTMVFECIAGYRPFLHHLQPFTWHEKIKKKDPKCIFACEEMSGEVRFSSHLPQPNSLCSLVVEPMENWLQLMLNWDPQQRGGPVDLTLKQPRCFVLMDHILNLKIVHILNMTSAKIISFLLPPDESLHSLQSRIERETGINTGSQELLSETGISLDPRKPASQCVLDGVRGCDSYMVYLFDKSKTVYEGPFASRSLSDCVNYIVQDSKIQLPIIQLRKVWAEAVHYVSGLKEDYSRLFQGQRAAMLSLLRYNANLTKMKNTLISASQQLKAKLEFFHKSIQLDLERYSEQMTYGISSEKMLKAWKEMEEKAIHYAEVGVIGYLEDQIMSLHAEIMELQKSPYGRRQGDLMESLEQRAIDLYKQLKHRPSDHSYSDSTEMVKIIVHTVQSQDRVLKELFGHLSKLLGCKQKIIDLLPKVEVALSNIKEADNTVMFMQGKRQKEIWHLLKIACTQSSARSLVGSSLEGAVTPQTSAWLPPTSAEHDHSLSCVVTPQDGETSAQMIEENLNCLGHLSTIIHEANEEQGNSMMNLDWSWLTE
For B1, the “phosphorylation of recombinant IκBα in an in vitro kinase assay of anti-IKK1 immunoprecipitates” value in data set [1] is on record as “a phosphorylated form of recombinant IκBα was easily detected”.

B2: Molluscum contagiosum virus (MCV) MC160 protein (other)
chain: MAHEPIPFSFLRNLLAELDASEHEVLRFLCRDVAPASKTAEDALRALQRRRLLTLSSMAELLCALRRFDVLKVRFGMTRECAGRLLGHGFLSQYRLQVAAINNMVGSEDLRVMCLCAGKLLPPSCTPRCLVDLVSALEDAGAISPQDVSVLVTLLHAVCRYDLSVALSAVAHGHMTVGVGTPVQDEPMDVLEVDDAEPMEATPACDEIGVVKLAGAASAGAPLADGAFAACTSAGKGEDLATSDLTDSEPEDSVFAVADPVYADVDLSMFVRANATADSSMFVNADAGADSSLVNADAGADSSLVNADAGADSSLVNAVADANSSLMRTTSACTDSEPEDSAGPSCAGMALSMFGRAKSVSSLLLRTKASY
notes: also called wild type MC160
Take B2: the binding result in data set [2], in data set [3] and in data set [4] was “no binding” throughout.

(Values after US20060251625A1 (published 2006).)
